Assay results from patent US20020045591A1 (published 2002).

T1: Endogenous β-catenin of SW480 human colon carcinoma cells (human, UniProt P35222 2-781)
T1 construct: whole, on cells
T1 sequence (looked up): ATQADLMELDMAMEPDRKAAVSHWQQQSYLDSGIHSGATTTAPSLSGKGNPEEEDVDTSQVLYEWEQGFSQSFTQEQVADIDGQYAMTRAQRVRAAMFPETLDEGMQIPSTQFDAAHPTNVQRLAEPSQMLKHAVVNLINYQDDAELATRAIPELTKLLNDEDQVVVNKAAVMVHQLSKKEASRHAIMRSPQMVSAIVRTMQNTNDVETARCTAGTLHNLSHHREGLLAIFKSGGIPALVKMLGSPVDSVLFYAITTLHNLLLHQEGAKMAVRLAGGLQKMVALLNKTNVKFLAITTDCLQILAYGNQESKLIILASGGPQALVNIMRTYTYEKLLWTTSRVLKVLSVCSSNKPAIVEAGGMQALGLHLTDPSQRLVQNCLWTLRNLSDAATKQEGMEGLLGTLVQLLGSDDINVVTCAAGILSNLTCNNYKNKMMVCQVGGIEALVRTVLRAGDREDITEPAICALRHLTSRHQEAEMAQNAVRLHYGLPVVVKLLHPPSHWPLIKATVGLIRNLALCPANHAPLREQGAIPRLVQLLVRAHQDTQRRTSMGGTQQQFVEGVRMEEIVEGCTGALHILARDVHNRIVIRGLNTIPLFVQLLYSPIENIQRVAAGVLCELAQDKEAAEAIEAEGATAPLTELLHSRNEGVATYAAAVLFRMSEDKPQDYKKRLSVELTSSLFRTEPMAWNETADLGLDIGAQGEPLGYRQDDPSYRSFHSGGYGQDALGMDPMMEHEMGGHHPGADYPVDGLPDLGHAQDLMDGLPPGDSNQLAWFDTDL


Assays:
[1] = target: T1, Endogenous β-catenin of SW480 human …; assay: double immunofluorescence, transfected SW480 cells
HA-tagged LEF-1 = assay: cell-based or functional assay
Sequence of HA-tagged LEF-1 (P27782 whole entry): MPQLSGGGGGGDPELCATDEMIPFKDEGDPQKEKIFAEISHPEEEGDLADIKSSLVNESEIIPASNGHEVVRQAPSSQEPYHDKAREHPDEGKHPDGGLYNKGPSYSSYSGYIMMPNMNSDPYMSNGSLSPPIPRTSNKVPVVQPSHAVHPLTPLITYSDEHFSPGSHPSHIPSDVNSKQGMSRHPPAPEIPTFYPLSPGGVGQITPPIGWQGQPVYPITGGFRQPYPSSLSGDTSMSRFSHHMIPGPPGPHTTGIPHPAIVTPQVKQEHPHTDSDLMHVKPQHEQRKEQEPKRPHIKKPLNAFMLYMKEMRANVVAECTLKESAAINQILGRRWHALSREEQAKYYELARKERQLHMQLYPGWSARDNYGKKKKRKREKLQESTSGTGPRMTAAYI

Row | Binder | binding result [1] | luciferase activity (TOPFLASH reporter) in CHO cells (HA-tagged LEF-1) [fold]
1 | HA-tagged chicken α-catenin (other, also called HA α-catenin; not shown: 16-amino acids hemaglutinin (HA)-tag of the pCGN vector at the NH2-terminus) TAVTAGNVNFRWDPKSLEIRTLAVERLLEPLVTQVTTLVNTSNKGPSNKKRGRSKKAHVLAASVEQATENFLDKGDKIAKESQFLKEELVAAVEDVRKQGDLMKSASGEFADDPCSSVKRGNMVRAARALLSAVTRLLILADMADVYKLLVQLKVVEEGILKLRNAGTEQDLGIQYKALKPEVDKLNIMAAKRQQELKDVGHRDQMAAARGILQKNVPILYTASQACLQHFDVAAYKANRDLIYKQLQQAVTGISNAAQATASDDAAQQQGGGGELAYALNNFDKQIIVDPSTFSEQRFRPSLEERLESIISGAALMADSSCTRDDRRERIVAECNAVRQALQDLLSEYMGNAGRKERSDALNSAIDKMTKKTRDLRRQLRKAVMDHVSDSFLETNVPLLVLIEAARNGNEKEVKEYTQVFREHANKLIEVANLACSISNNEEGVKLVRMSASQLEALCPQVINAALALAAKPQSKLAQENMELFKEQWEKQVRVLTDAVDDITSIDDFLAVSENHILEDVNKCVIALQEKDVDGLDRTAGAIRGRAARVIHVVTSEMDNYEPGVYTEKVLEATKLLSNTVMPRFTEQVEAAVEALSSDPAQPMDENEFIDRSRLVYDGIRDIRKAVLMIRTPEELDDSDFETEDFDVRSKTSIQTEDDQLIAGQSARAIMAQLPQEQKAKIAEAVASFQEEKSKLDAEVSKWDDSGNDIIVLAKQMCMIMMEMTDFTRGKGPLKNTSDVISAAKKIAEAGSRMDKLGRTIADHCPDSASKQDLLAYLQRIALYCHQLNICSKVKAEVQNLGGELVVSGVDSAMSLIQAAKNLMNAVVQTVKASYVASTKYQKSQGMASLNLPAVSWKMKAPEKKPLVKREKQDETQTKIKRASQKKHVNPVQALSEFKAMESI | binds | –
2 | Mouse β-catenin (transfected cDNA) (other, UniProt Q02248 2-781, looked up) ATQADLMELDMAMEPDRKAAVSHWQQQSYLDSGIHSGATTTAPSLSGKGNPEEEDVDTSQVLYEWEQGFSQSFTQEQVADIDGQYAMTRAQRVRAAMFPETLDEGMQIPSTQFDAAHPTNVQRLAEPSQMLKHAVVNLINYQDDAELATRAIPELTKLLNDEDQVVVNKAAVMVHQLSKKEASRHAIMRSPQMVSAIVRTMQNTNDVETARCTAGTLHNLSHHREGLLAIFKSGGIPALVKMLGSPVDSVLFYAITTLHNLLLHQEGAKMAVRLAGGLQKMVALLNKTNVKFLAITTDCLQILAYGNQESKLIILASGGPQALVNIMRTYTYEKLLWTTSRVLKVLSVCSSNKPAIVEAGGMQALGLHLTDPSQRLVQNCLWTLRNLSDAATKQEGMEGLLGTLVQLLGSDDINVVTCAAGILSNLTCNNYKNKMMVCQVGGIEALVRTVLRAGDREDITEPAICALRHLTSRHQEAEMAQNAVRLHYGLPVVVKLLHPPSHWPLIKATVGLIRNLALCPANHAPLREQGAIPRLVQLLVRAHQDTQRRTSMGGTQQQFVEGVRMEEIVEGCTGALHILARDVHNRIVIRGLNTIPLFVQLLYSPIENIQRVAAGVLCELAQDKEAAEAIEAEGATAPLTELLHSRNEGVATYAAAVLFRMSEDKPQDYKKRLSVELTSSLFRTEPMAWNETADLGLDIGAQGEALGYRQDDPSYRSFHSGGYGQDALGMDPMMEHEMGGHHPGADYPVDGLPDLGHAQDLMDGLPPGDSNQLAWFDTDL | – | ~5
